B1: LINE1-mini (parent)
chain: GGCAGAGCUCAACACAGCGUGGCAAAGUGGCUGUGGCUAGACUGCC

Results on 112 variants are retold here after the RNAGym collection of RNA variant scans (doi:10.7554/elife.90254).

Variants of B1 are the subject of the data set. Nature of the data set: self-cleavage, relative activity (ratio to wild type); higher = more cleavage; in vitro, sequencing; the parent is a self-cleaving ribozyme.
In the case of GCCAGACCUCAACACAGCGUGGCAAAGUGGCUGUGGCUAGACUGCC, the self-cleavage is 0.14.
Consider GCCAGAACUCAACACAGCGUGGCAAAGUGGCUGUGGCUAGACUGCC, for which the self-cleavage is 0.06.
On to GCCAGAUCUCAACACAGCGUGGCAAAGUGGCUGUGGCUAGACUGCC, for which the self-cleavage was determined as 0.28.
Regarding GACAGAGCUCAACACAGCGUGGCAAAGUGGCUGUGGCUAGACUCCC, the self-cleavage amounted to 0.56.
On to GACAGAGCUCAACACAGCGUGGCAAAGUGGCUGUGGCUAGACUACC, for which the self-cleavage turned out to be 0.49.
GACAGAGCUCAACACAGCGUGGCAAAGUGGCUGUGGCUAGACUUCC: the self-cleavage was found to be 0.75.
The same measure for GACAGAGCUCAACACAGCGUGGCAAAGUGGCUCUGGCUAGACUGCC: 0.05; for GACAGAGCUCAACACAGCGUGGCAAAGUGGCUUUGGCUAGACUGCC: 0.13.
In the case of GACAGAGCUCAACACAGCGUGGCAAAGUGGCUAUGGCUAGACUGCC, the self-cleavage was found to be 0.2.
The same measure for GACAGAGCUCAACACAGCGUGGCAAAGUGGCUGGGGCUAGACUGCC: 0.13.
Consider GACAGAGCUCAACACAGCGUGGCAAAGUGGCUGCGGCUAGACUGCC, for which the self-cleavage stood at 0.19.
As to GACAGAGCUCAACACAGCGUGGCAAAGUGGCUGAGGCUAGACUGCC, the self-cleavage amounted to 0.18.
Next, GCCAGAGCUCAAAACAGCGUGGCAAAGUGGCUGUGGCUAGACUGCC: 0.08; GCCAGAGCUCAAUACAGCGUGGCAAAGUGGCUGUGGCUAGACUGCC: 0.18; GCCAGAGCUCAAGACAGCGUGGCAAAGUGGCUGUGGCUAGACUGCC: 0.03.
Consider GCCAGAGCUCAACACAGCGUGGCAAAGUGGCUGUGGCUAGACUGCC, for which the self-cleavage was 0.13.
For GACAGAGCUCAACACAGCGUGGCAAAGUGGCGGUGGCUAGACUGCC, the self-cleavage was determined as 0.2.
For the variant GACAGAGCUCAACACAGCGUGGCAAAGUGGCCGUGGCUAGACUGCC, the self-cleavage is 0.24.
Turning to GACAGAGCUCAACACAGCGUGGCAAAGUGGCAGUGGCUAGACUGCC, the self-cleavage was 0.14.
GACAGAGCUCAACACAGCGUGGCAAAGUGGCUGUUGCUAGACUGCC: the self-cleavage was 0.41.
Turning to GACAGAGCUCAACACAGCGUGGCAAAGUGGCUGUAGCUAGACUGCC, the self-cleavage worked out at 0.26.
On to GACAGAGCUCAACACAGCGUGGCAAAGUGGCUGUCGCUAGACUGCC, for which the self-cleavage was 0.34.
For GCCAGAGCUCAACACAGCGUGGCAAAGUGGCUGUGGCUAGACUGGC, the self-cleavage was determined as 0.61.
Turning to GCCAGAGCUCAACACAGCGUGGCAAAGUGGCUGUGGCUAGACUGUC, the self-cleavage amounted to 0.19.
For the variant GCCAGAGCUCAACACAGCGUGGCAAAGUGGCUGUGGCUAGACUGAC, the self-cleavage turned out to be 0.25.
Regarding GCCAGAGCUCAACAAAGCGUGGCAAAGUGGCUGUGGCUAGACUGCC, the self-cleavage worked out at 0.06.
In the case of GCCAGAGCUCAACAGAGCGUGGCAAAGUGGCUGUGGCUAGACUGCC, the self-cleavage amounted to 0.02.
For GCCAGAGCUCAACAUAGCGUGGCAAAGUGGCUGUGGCUAGACUGCC, the self-cleavage was found to be 0.11.
As to GACAGAGCUCAACACAGCGUGGCAAAGUGGCUGUGGCGAGACUGCC, the self-cleavage came out at 0.05.
As for GACAGAGCUCAACACAGCGUGGCAAAGUGGCUGUGGCAAGACUGCC, the self-cleavage is 0.71.
Turning to GACAGAGCUCAACACAGCGUGGCAAAGUGGCUGUGGCCAGACUGCC, the self-cleavage came out at 0.7.
The same measure for GACAGAGCUCAACACAGCGUGGCAAAGUGGCUGUGCCUAGACUGCC: 0.28; for GACAGAGCUCAACACAGCGUGGCAAAGUGGCUGUGUCUAGACUGCC: 0.19.
As to GACAGAGCUCAACACAGCGUGGCAAAGUGGCUGUGACUAGACUGCC, the self-cleavage was 0.69.
The same measure for GCCAGAGCUCAACACAGCGUGGAAAAGUGGCUGUGGCUAGACUGCC: 0.08; for GCCAGAGCUCAACACAGCGUGGGAAAGUGGCUGUGGCUAGACUGCC: 0.12; for GCCAGAGCUCAACACAGCGUGGUAAAGUGGCUGUGGCUAGACUGCC: 0.16.
GACAGAGCACAACACAGCGUGGCAAAGUGGCUGUGGCUAGACUGCC: the self-cleavage amounted to 0.31.
As to GACAGAGCCCAACACAGCGUGGCAAAGUGGCUGUGGCUAGACUGCC, the self-cleavage was found to be 0.08.
As for GACAGAGCGCAACACAGCGUGGCAAAGUGGCUGUGGCUAGACUGCC, the self-cleavage amounted to 0.25.
Regarding GCCCGAGCUCAACACAGCGUGGCAAAGUGGCUGUGGCUAGACUGCC, the self-cleavage came to 0.11.
For GCCUGAGCUCAACACAGCGUGGCAAAGUGGCUGUGGCUAGACUGCC, the self-cleavage was 0.08.
Take GCCGGAGCUCAACACAGCGUGGCAAAGUGGCUGUGGCUAGACUGCC: the self-cleavage was determined as 0.16.
On to GCAAGAGCUCAACACAGCGUGGCAAAGUGGCUGUGGCUAGACUGCC, for which the self-cleavage came out at 0.42.
With GCGAGAGCUCAACACAGCGUGGCAAAGUGGCUGUGGCUAGACUGCC, the self-cleavage is 0.07.
With GCUAGAGCUCAACACAGCGUGGCAAAGUGGCUGUGGCUAGACUGCC, the self-cleavage was determined as 0.54.
As to GCCAGAGCUCAACACAGCGUGGCACAGUGGCUGUGGCUAGACUGCC, the self-cleavage was 0.15.
Next, GCCAGAGCUCAACACAGCGUGGCAUAGUGGCUGUGGCUAGACUGCC: 0.08.
With GCCAGAGCUCAACACAGCGUGGCAGAGUGGCUGUGGCUAGACUGCC, the self-cleavage was 0.06.
As for GACAGAGCUCAACACAGCGUGGCAAAGUGGCUGUGGCUAUACUGCC, the self-cleavage is 0.29.
With GACAGAGCUCAACACAGCGUGGCAAAGUGGCUGUGGCUACACUGCC, the self-cleavage turned out to be 0.12.
GACAGAGCUCAACACAGCGUGGCAAAGUGGCUGUGGCUAAACUGCC: the self-cleavage stood at 0.35.
For the variant GACAGAGCUCAACACAGCGCGGCAAAGUGGCUGUGGCUAGACUGCC, the self-cleavage came to 0.48.
For the variant GACAGAGCUCAACACAGCGGGGCAAAGUGGCUGUGGCUAGACUGCC, the self-cleavage came out at 0.36.
The same measure for GACAGAGCUCAACACAGCGAGGCAAAGUGGCUGUGGCUAGACUGCC: 0.88; for GCCAGAGCUCAACACAGCGUGGCUAAGUGGCUGUGGCUAGACUGCC: 0.15; for GCCAGAGCUCAACACAGCGUGGCGAAGUGGCUGUGGCUAGACUGCC: 0.09.
On to GCCAGAGCUCAACACAGCGUGGCCAAGUGGCUGUGGCUAGACUGCC, for which the self-cleavage amounted to 0.06.
As for GCCAGAGCUCAACACAGAGUGGCAAAGUGGCUGUGGCUAGACUGCC, the self-cleavage amounted to 0.06.
Next, GCCAGAGCUCAACACAGGGUGGCAAAGUGGCUGUGGCUAGACUGCC: 0.05.
Turning to GCCAGAGCUCAACACAGUGUGGCAAAGUGGCUGUGGCUAGACUGCC, the self-cleavage stood at 0.09.
Next, GCCAGAGCUCCACACAGCGUGGCAAAGUGGCUGUGGCUAGACUGCC: 0.02; GCCAGAGCUCGACACAGCGUGGCAAAGUGGCUGUGGCUAGACUGCC: 0.02.
Next, GCCAGAGCUCUACACAGCGUGGCAAAGUGGCUGUGGCUAGACUGCC: 0.03; GCCAGAGCUCACCACAGCGUGGCAAAGUGGCUGUGGCUAGACUGCC: 0.02; GCCAGAGCUCAGCACAGCGUGGCAAAGUGGCUGUGGCUAGACUGCC: 0.07.
As for GCCAGAGCUCAUCACAGCGUGGCAAAGUGGCUGUGGCUAGACUGCC, the self-cleavage was 0.12.
Next, GCCAGAGCUCAACACAGCGUGGCAAAGUGGCUGUGGCUAGACUGCA: 0.09; GCCAGAGCUCAACACAGCGUGGCAAAGUGGCUGUGGCUAGACUGCG: 0.16.
For the variant GCCAGAGCUCAACACAGCGUGGCAAAGUGGCUGUGGCUAGACUGCU, the self-cleavage was 0.07.
Take GCCAGAGCUCAACACAGCGUGGCAAAGUGGCUGUGGCUAGGCUGCC: the self-cleavage stood at 0.17.
On to GCCAGAGCUCAACACAGCGUGGCAAAGUGGCUGUGGCUAGUCUGCC, for which the self-cleavage worked out at 0.12.
Take GCCAGAGCUCAACACAGCGUGGCAAAGUGGCUGUGGCUAGCCUGCC: the self-cleavage came to 0.12.
Next, GACAGAGCUCAACACAGCGUGGCAAAGUGGCUGUGGCUAGACCGCC: 0.13; GACAGAGCUCAACACAGCGUGGCAAAGUGGCUGUGGCUAGACAGCC: 0.14.
With GACAGAGCUCAACACAGCGUGGCAAAGUGGCUGUGGCUAGACGGCC, the self-cleavage came out at 0.14.
For GCCAGAGGUCAACACAGCGUGGCAAAGUGGCUGUGGCUAGACUGCC, the self-cleavage stood at 0.08.
Next, GCCAGAGAUCAACACAGCGUGGCAAAGUGGCUGUGGCUAGACUGCC: 0.17; GCCAGAGUUCAACACAGCGUGGCAAAGUGGCUGUGGCUAGACUGCC: 0.18; GACAGAGCUCAACACAGCGUGGCAAAGGGGCUGUGGCUAGACUGCC: 0.48.
Consider GACAGAGCUCAACACAGCGUGGCAAAGCGGCUGUGGCUAGACUGCC, for which the self-cleavage was found to be 0.64.
Next, GACAGAGCUCAACACAGCGUGGCAAAGAGGCUGUGGCUAGACUGCC: 0.32; GCCAAAGCUCAACACAGCGUGGCAAAGUGGCUGUGGCUAGACUGCC: 0.05; GCCACAGCUCAACACAGCGUGGCAAAGUGGCUGUGGCUAGACUGCC: 0.02.
Next, GCCAUAGCUCAACACAGCGUGGCAAAGUGGCUGUGGCUAGACUGCC: 0.03; GCCAGAGCUCAACCCAGCGUGGCAAAGUGGCUGUGGCUAGACUGCC: 0.06.
For the variant GCCAGAGCUCAACUCAGCGUGGCAAAGUGGCUGUGGCUAGACUGCC, the self-cleavage was determined as 0.08.
For GCCAGAGCUCAACGCAGCGUGGCAAAGUGGCUGUGGCUAGACUGCC, the self-cleavage stood at 0.03.
On to GCCAGAGCUUAACACAGCGUGGCAAAGUGGCUGUGGCUAGACUGCC, for which the self-cleavage was 0.03.
As for GCCAGAGCUAAACACAGCGUGGCAAAGUGGCUGUGGCUAGACUGCC, the self-cleavage is 0.03.
As for GCCAGAGCUGAACACAGCGUGGCAAAGUGGCUGUGGCUAGACUGCC, the self-cleavage stood at 0.03.
With GCCAGAGCUCAACACGGCGUGGCAAAGUGGCUGUGGCUAGACUGCC, the self-cleavage is 0.09.
As for GCCAGAGCUCAACACUGCGUGGCAAAGUGGCUGUGGCUAGACUGCC, the self-cleavage is 0.04.
The same measure for GCCAGAGCUCAACACCGCGUGGCAAAGUGGCUGUGGCUAGACUGCC: 0.02; for GCCAGAGCUCAACACAGCGUGGCAAAGUGGCUGUGGCUGGACUGCC: 0.09.
As to GCCAGAGCUCAACACAGCGUGGCAAAGUGGCUGUGGCUCGACUGCC, the self-cleavage turned out to be 0.09.
Regarding GCCAGAGCUCAACACAGCGUGGCAAAGUGGCUGUGGCUUGACUGCC, the self-cleavage was 0.1.
Take GCCAGAGCUCAACACAGCGUGGCAAAGUGGCUGUGGAUAGACUGCC: the self-cleavage was 0.06.
Turning to GCCAGAGCUCAACACAGCGUGGCAAAGUGGCUGUGGUUAGACUGCC, the self-cleavage was 0.06.
GCCAGAGCUCAACACAGCGUGGCAAAGUGGCUGUGGGUAGACUGCC: the self-cleavage was determined as 0.05.
As for GCCAGAGCUCAACACAGCGUGGCAAAGUGGCUGUGGCUAGAAUGCC, the self-cleavage came out at 0.08.
On to GCCAGAGCUCAACACAGCGUGGCAAAGUGGCUGUGGCUAGAUUGCC, for which the self-cleavage turned out to be 0.07.
On to GCCAGAGCUCAACACAGCGUGGCAAAGUGGCUGUGGCUAGAGUGCC, for which the self-cleavage amounted to 0.03.
As for GCCAGAGCUCAACACAGCGUGGCAACGUGGCUGUGGCUAGACUGCC, the self-cleavage is 0.11.
In the case of GCCAGAGCUCAACACAGCGUGGCAAUGUGGCUGUGGCUAGACUGCC, the self-cleavage was 0.09.
Next, GCCAGAGCUCAACACAGCGUGGCAAGGUGGCUGUGGCUAGACUGCC: 0.11; GCCAGCGCUCAACACAGCGUGGCAAAGUGGCUGUGGCUAGACUGCC: 0.12; GCCAGUGCUCAACACAGCGUGGCAAAGUGGCUGUGGCUAGACUGCC: 0.14.
As for GCCAGGGCUCAACACAGCGUGGCAAAGUGGCUGUGGCUAGACUGCC, the self-cleavage amounted to 0.07.
Next, GCCAGAGCUCAACACAGCGUGGCAAAGUGGGUGUGGCUAGACUGCC: 0.06.
Consider GCCAGAGCUCAACACAGCGUGGCAAAGUGGUUGUGGCUAGACUGCC, for which the self-cleavage turned out to be 0.08.
As for GCCAGAGCUCAACACAGCGUGGCAAAGUGGAUGUGGCUAGACUGCC, the self-cleavage was determined as 0.07.
